In publication PMC8080410 (Bioactive Materials, 2021):

B1: E-OVA_(323-336) (peptide)
peptide: EWEAEAEAEWEGGGQAVHAAHAEINEAGR

Tests used:
E-OVA_(323-336) = molecular target: B1; assay: TEM + rheology + circular dichroism
TEM + DLS = molecular target: the molecule itself; assay: TEM + DLS

Binder	binding result (E-OVA_(323-336))	binding result (TEM + DLS)
KWKAKAKAKWKGGGSIINFEKL [K-OVA_(257-264)]	binds	binds
B1		binds
